Laboratory results taken from patent US20050070692A1 (published 2005).
Where a chain is given by its changes, count along the chain named. In names and notes the source's numbering stands. Blank lines part the entries; values can stand above or below the binder they belong to.

Key:
human IL-1β [1] = biological target: T1, human IL-1β (human, UniProt P01584 117-269); assay: BIAcore, antibody captured on anti-IgG CM5 chip, IL-1β flowed
T1 construct: mature; also called mature human IL-1β; Interleukin-1β
Protocol: (§1) Affinities and specificities of both Hu007 and Mu007 were determined using BlAcore measurements. BIAcore™ is an automated biosensor system that measures molecular interactions. (Karlsson, et al. (1991) J. Immunol. Methods 145: 229-240). In these experiments antibody was immobilized at low density on a BIAcore™ chip. Ethyl-dimethylaminopropyl-carbodiimide (EDC) was used to couple reactive amino groups to purified goat anti-human IgG or goat anti-rabbit IgG to a flow cell of a carboxy-methyl (CM5) BIAcore™ sensor chip. Goat IgG was diluted in sodium acetate buffer, pH 4.0, and immobilized on a flow cell of a CM5 chip using EDC to yield 1000 response units. Unreacted sites were blocked with ehanolamine. A flow rate of 60 μL/min was used. Multiple binding/elution cycles were performed by injection a 100 μL solution of 15 μg/mL Mu007 or Hu007 followed by human IL-1β, mouse IL-1β, rat IL-1β, cynomolgus monkey IL-1β, porcine IL-1β, human IL-1 receptor antagonist, and human IL-1α at decreasing concentrations for each cycle (e.g., 1500, 750, 375, 188, 94, 47, 23.5, 12, and 0 picomolar). Elution was performed with glycine-HCl, pH 1.5. BIAevaluation™ was used to analyze the kinetic data. Table 2 depicts the affinities of Hu007 and Mu007 for human and cynomolgus IL-1β. […] Cynomolgus and porcine IL-1β had 100% binding to Hu007 relative to human IL-1β.

cynomolgus monkey IL-1β = biological target: T2, cynomolgus monkey IL-1β (cynomolgus monkey, UniProt P79182 117-268); assay: as above
T2 construct: also called Cynomolgus IL-1β
T2 sequence (looked up): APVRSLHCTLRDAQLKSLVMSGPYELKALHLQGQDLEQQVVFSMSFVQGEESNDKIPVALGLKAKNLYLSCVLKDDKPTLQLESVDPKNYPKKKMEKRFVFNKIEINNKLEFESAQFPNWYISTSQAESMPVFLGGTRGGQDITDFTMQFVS
Protocol: as §1

human IL-1β [2] = biological target: T1, human IL-1β; assay: cell-based or functional assay
human IL-1β [3] = biological target: T1, human IL-1β; assay: competition ELISA on coated human IL-1β against biotinylated Mu007, Exp. C
Protocol: (§2) Wells of 96-well ELISA plates (Nunc-lmmuno plate, Cat # 439454, NalgeNunc) were coated with 100 μL of 0.5. μg/mL of human IL-1β in 0.2M sodium carbonate-bicarbonate buffer (pH 9.4) overnight at 4° C., washed with Wash Buffer, blocked with Superblock blocking buffer for 30 min at 37° C., and washed again with Wash Buffer. A mixture of biotinylated Mu007 (0.16 μg/mL final concentration) and competitor antibody (Mu007, Hu007, or Hu007 analogs starting at 100 μg/mL final concentration and serial 3-fold dilutions) in ELISA Buffer were added in triplicate in a final volume of 100 μL per well. As a no-competitor control, 100 μL of 0.16 μg/mL biotinylated Mu007 was used. As a background control, 100 gLL of ELISA Buffer was used. ELISA plates were incubated at 37° C. for 2 hr. After washing the wells with Washing Buffer, 100 μL of 1 μg/mL HRP-conjugated streptavidin (Jackson ImmunoResearch) was added to each well. ELISA plates were incubated at room temperature for 30 min and washed with Washing Buffer. For color development, 100 μL/well of ABTS substrate was added. Color development was stopped by adding 100 μL/well of 2% oxalic acid. Absorbance was read at 415 nm.
(§3) Mu007, Hu007 and Hu007 analogs competed with biotinylated Mu007 in a concentration-dependent manner. The IC₅₀ values of Mu007 and Hu007 in three independent ELISA competition experiments, obtained using the computer software Prism (GraphPad Software Inc., San Diego, Calif.) are shown in Table 1. The relative binding of Hu007 was on average 89% of Mu007.

human IL-1β [4] = biological target: T1, human IL-1β; assay: competition ELISA on coated human IL-1β against biotinylated Mu007, average of three experiments
Protocol: as §2
Mu007, Hu007 and Hu007 analogs competed with biotinylated Mu007 in a concentration-dependent manner. […]

human IL-1β [5] = biological target: T1, human IL-1β; assay: competition ELISA on coated human IL-1β against biotinylated Mu007, Exp. B
Protocol: as §2, §3

human IL-1β [6] = biological target: T1, human IL-1β; assay: competition ELISA on coated human IL-1β against biotinylated Mu007, Exp. A
Protocol: as §2, §3

human IL-1β [7] = biological target: T1, human IL-1β; assay: BIAcore, antibody captured on protein A CM5 chip, human IL-1β flowed
Protocol: (§4) Affinities and specificities of several Hu007 analogs were determined using BIAcore measurements. BIAcore™ is an automated biosensor system that measures molecular interactions. (Karlsson, et al. (1991) J. Immunol. Methods 145: 229-240). In these experiments antibody was immobilized at low density on a BIAcore™ chip. Ethyl-dimethylaminopropyl-carbodiimide (EDC) was used to couple reactive amino groups to protein A to a flow cell of a carboxy-methyl (CM5) BIAcore™ sensor chip. Protein A was diluted in sodium acetate buffer, pH 4.5, and immobilized on a flow cell of a CM5 chip using EDC to yield approximately 1000 response units. Unreacted sites were blocked with ethanolamine. A flow rate of 60 μl/min was used. Multiple binding/elution cycles were performed by injection of 10 μl of a 5 μg/mL Hu007 solution, and heavy chain CDR2 analogs N55D, N55S, N55Q, G56A, and G56V, followed by human IL-1β at decreasing concentrations for each cycle (e.g. 1500, 750, 375, 188, and […]). Elution was performed with glycine-HCl, pH 1.5. BIAevaluation™ was used to analyze the kinetic data. Table 5 depicts the affinities of Hu007 and the various Hu007 analogs for human IL-1β.

human IL-1β [8] = biological target: T1, human IL-1β; assay: cell-based or functional assay; remark: listed apart in the source
human IL-1β [9] = biological target: T1, human IL-1β; assay: BIAcore (Example 13)
Protocol: as §4

B3: Hu007 analog N55Q (antibody, human IgG1, kappa, V domains shown)
VH: QVQLVQSGAEVKKPGASVKVSCKVSGYTFSRYWIEWVRQAPGKGLEWIGEILPGQGNINYNEKFKGKATITADTSTDTAYMELSSLRSEDTAVYYCSTIYYDYDQGFTYWGQGTLVTVSS
VL: DIQMTQSPSSLSASVGDRVTITCKASQDIDRYLSWFQQKPGKAPKSLIYRVKRLVDGVPSRFSGSASGTDYTLTISSLQPEDFATYYCLQYDEFPYTFGQGTKLEIKR
notes: IgG1; Heavy chain of Hu007 with N55Q, co-transfected with the WT Hu007 light chain
Kd (human IL-1β [7]): 0.257 nM | IC50, inhibition of human IL-1β stimulated proliferation (human IL-1β [8]): 2500 Picomolar

B4: Hu007 analog N55D (antibody, human IgG1, kappa, V domains shown)
VH: B3 VH with Q55D
VL: B3 VL
notes: IgG1; Heavy chain of Hu007 with N55D, co-transfected with the WT Hu007 light chain; It mimics fully deamidated Hu007; also called heavy chain CDR2 analog N55D
Kd (human IL-1β [7]): 0.149 nM | fold loss of binding affinity against Hu007 (human IL-1β [9]): ~15 fold | IC50, inhibition of human IL-1β stimulated proliferation (human IL-1β [8]): 1100 Picomolar

B6: Hu007 analog G56V (antibody, human IgG1, kappa, V domains shown)
VH: B3 VH with Q55N, G56V
VL: B3 VL
notes: IgG1; Heavy chain of Hu007 with G56V, co-transfected with the WT Hu007 light chain
Kd (human IL-1β [7]): 0.0732 nM | IC50, inhibition of human IL-1β stimulated proliferation (human IL-1β [8]): 395 Picomolar

Results, then the binder that gave them:

Kd (human IL-1β [1]): 0.0062 nM | Kd (cynomolgus monkey IL-1β): 0.0073 nM | IC50, inhibition of IL-1β stimulated proliferation of T1165.17 cells (3H-thymidine), average of three experiments (human IL-1β [2]): 0.22 nM | IC50 (human IL-1β [3]): 0.39 µg/mL | IC50 (human IL-1β [4]): 0.4 µg/mL | IC50 (human IL-1β [5]): 0.4 µg/mL | IC50 (human IL-1β [6]): 0.4 µg/mL
B1: mouse monoclonal antibody Mu007 (antibody, V domains shown)
VH: B3 VH with Q55N, S120A
VL: DIKMTQSPSSMYASLGERVTITCKASQDIDRYLSWFQQKPGKSPKTLIYRVKRLVDGVPSRFSGSASGQDYSLTISSLQYEDMGIYYCLQYDEFPYTFGGGTKLEIK

Kd (human IL-1β [7]): 0.0336 nM | IC50, inhibition of human IL-1β stimulated proliferation (human IL-1β [8]): 184 Picomolar
B2: Hu007 analog G56A (antibody, human IgG1, kappa, V domains shown)
VH: B3 VH with Q55N, G56A
VL: B3 VL
notes: IgG1; Heavy chain of Hu007 with G56A, co-transfected with the WT Hu007 light chain

Kd (human IL-1β [7]): 0.0281 nM | fold of the binding affinity of Hu007 (human IL-1β [9]): ≤ 3 fold | IC50, inhibition of human IL-1β stimulated proliferation (human IL-1β [8]): 184 Picomolar
B5: Hu007 analog N55S (antibody, human IgG1, kappa, V domains shown)
VH: B3 VH with Q55S
VL: B3 VL
notes: IgG1; also called heavy chain CDR2, N55S
